Test results published in patent publication US20260209317A1 (US Dept. of Health and Human Services, published 2026).

Biological target: T1, SARS-CoV-2 WA-1 RBD protein (SARS-CoV-2, UniProt P0DTC2 319-541)
T1 construct: domain: RBD
Assay: ELISA, plate coated with WA1 RBD

B1: B2-269.1 (antibody, V domains shown)
VH: EVQLVESGGGLVQPGGSLRLSCAASGITVSSNYMSWVRQPPGKGLDWVSLIFSGGSTYYADSVKGRFTISRDNSKNTLYLQMNSLRAEDTAVYYCARVGVAVAGTDYDIWGQGTMVTVSS
VL: DIQMTQSPSSLSASVGDRVTITCQASQDINKYLNWYQQKPGKAPKLLIYDASNLETGVPSRFSGSGSGTDFTFTISSLQPEDIATYYCLHYENLPLSFGGGTKVEIK
- EC50 (read off the curve): ~4 ng/mL
